One experiment deals with T1, cynomolgus monkey BCMA (cynomolgus monkey, UniProt A0A2K5UD97 1-183).
T1 construct: whole, on cells; also called cyno BCMA
Kind of experiment: FACS on HEK293T/cyno BCMA cells.

In experiment [1] the target is T2, human BCMA (human, UniProt Q02223 1-184).
T2 construct: whole, on cells; also called hBCMA; TNFRSF17
T2 sequence (looked up): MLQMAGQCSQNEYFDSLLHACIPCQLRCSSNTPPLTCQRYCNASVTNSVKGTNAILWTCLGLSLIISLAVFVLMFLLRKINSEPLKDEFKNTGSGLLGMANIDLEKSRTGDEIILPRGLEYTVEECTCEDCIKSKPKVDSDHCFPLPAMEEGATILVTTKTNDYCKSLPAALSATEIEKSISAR
Kind of experiment: FACS on HEK293T/hBCMA cells, Experiment 1.

The target in experiment [2] is T2, human BCMA. Kind of experiment: FACS on NCI-H929 cells.
Experiment [3] deals with T3, human 4-1BB (tumor necrosis factor receptor superfamily member 9) (human, UniProt Q07011 24-255). Kind of experiment: cell-based or functional assay.
Experiment [4] concerns the target T4, human CTLA4 on CHO-K1/hCTLA4 cells (human, UniProt P16410 36-223).
T4 construct: whole, on cells; CHO-K1 cell line highly expressing human CTLA4; also called human CTLA4 cell
Description: flow cytometry on CHO-K1/hCTLA4 cells, Experiment 1. (In general: A flow cytometer gives signals particle by particle.)

The target in experiment [5] is T5, human PD-L1 (programmed death ligand 1) (human, UniProt Q9NZQ7 19-290).
T5 construct: whole, on cells; also called hPDL1; CD274
Kind of experiment: flow cytometry (FACS) on CHO-K1/hPDL1 cells, Experiment 3.

For experiment [6], the target named is T5, human PD-L1 (programmed death ligand 1). Description: flow cytometry (FACS) on CHO-K1/hPDL1 cells, Experiment 1.
The target of experiment [7] is T3, human 4-1BB (tumor necrosis factor …). Description: flow cytometry (FACS) on CHO-K1/hu 4-1BB cells.
Another experiment addresses T6, cynomolgus monkey 4-1BB (cynomolgus monkey).
T6 construct: whole, on cells; also called cyno 4-1BB
Kind of experiment: flow cytometry (FACS) on CHO-K1/cyno 4-1BB cells, Experiment 1.

Numbering of substitutions follows the chain as printed. Names and notes keep the numbering of the source.

T5 sequence (Q9NZQ7 19-290): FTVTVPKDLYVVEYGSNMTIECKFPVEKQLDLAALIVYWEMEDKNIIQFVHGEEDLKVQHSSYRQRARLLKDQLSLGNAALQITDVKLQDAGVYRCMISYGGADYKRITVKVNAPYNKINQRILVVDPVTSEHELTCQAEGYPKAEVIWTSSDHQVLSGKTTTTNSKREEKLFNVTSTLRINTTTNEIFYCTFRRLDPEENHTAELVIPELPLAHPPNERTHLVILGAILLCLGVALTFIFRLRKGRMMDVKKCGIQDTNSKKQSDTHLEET
T4 sequence (P16410 36-223): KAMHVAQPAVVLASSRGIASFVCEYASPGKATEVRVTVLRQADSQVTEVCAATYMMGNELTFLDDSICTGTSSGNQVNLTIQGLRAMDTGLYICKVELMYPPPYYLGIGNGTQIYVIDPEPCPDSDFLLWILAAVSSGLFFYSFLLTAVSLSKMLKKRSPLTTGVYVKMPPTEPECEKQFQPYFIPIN
T1 sequence (A0A2K5UD97 entry or part of it): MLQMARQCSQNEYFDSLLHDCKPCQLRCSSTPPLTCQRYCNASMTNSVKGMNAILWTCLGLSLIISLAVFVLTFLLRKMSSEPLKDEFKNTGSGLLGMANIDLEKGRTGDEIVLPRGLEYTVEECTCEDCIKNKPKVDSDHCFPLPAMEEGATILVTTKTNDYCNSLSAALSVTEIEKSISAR
T3 sequence (Q07011 24-255): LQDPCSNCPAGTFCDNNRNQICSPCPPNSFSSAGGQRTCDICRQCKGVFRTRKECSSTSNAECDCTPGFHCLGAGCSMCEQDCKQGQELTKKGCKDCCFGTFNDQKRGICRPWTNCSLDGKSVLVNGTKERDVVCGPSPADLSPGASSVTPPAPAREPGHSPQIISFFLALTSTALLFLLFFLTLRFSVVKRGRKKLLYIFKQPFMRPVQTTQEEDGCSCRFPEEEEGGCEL

B1: PR002929 (bispecific antibody, human IgG1, lambda, L234A L235A)
light: QAVVTQEPSLTVSPGGTVTLTCRSSTGAVTTSNYANWVQQKPGQAPRGLIGGTNKRAPWTPARFSGSLLGDKAALTLLGAQPEDEAEYFCALWYSNLWVFGGGTKLTVLGQPKAAPSVTLFPPSSEELQANKATLVCLISDFYPGAVTVAWKADSSPVKAGVETTTPSKQSNNKYAASSYLSLTPEQWKSHRSYSCQVTHEGSTVEKTVAPTECS
heavy: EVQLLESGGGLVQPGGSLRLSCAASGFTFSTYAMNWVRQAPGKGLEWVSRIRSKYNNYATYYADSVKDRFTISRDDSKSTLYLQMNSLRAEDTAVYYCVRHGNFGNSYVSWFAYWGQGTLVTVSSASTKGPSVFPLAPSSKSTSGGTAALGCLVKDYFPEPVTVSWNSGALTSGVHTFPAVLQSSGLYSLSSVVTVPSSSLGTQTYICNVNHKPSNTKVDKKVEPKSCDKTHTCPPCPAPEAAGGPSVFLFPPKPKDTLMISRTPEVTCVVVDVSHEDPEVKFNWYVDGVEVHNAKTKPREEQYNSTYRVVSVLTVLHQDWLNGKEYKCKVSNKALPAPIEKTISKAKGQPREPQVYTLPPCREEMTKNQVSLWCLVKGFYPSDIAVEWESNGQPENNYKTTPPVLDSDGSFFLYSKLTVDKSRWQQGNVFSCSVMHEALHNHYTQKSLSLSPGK
chain: EVQLVETGGGLIQPGGSLRLSCAASGFTVSDNYMTWVRQAPGKGLEWVSVIFSGGNTYYADSVKGRFTISRDNAKNTLYLQMNSLRAEDTALYYCARRNYDDTRGTDVFDIWGQGTMVTVSSASEPKSSDKTHTCPPCPAPEAAGGPSVFLFPPKPKDTLMISRTPEVTCVVVDVSHEDPEVKFNWYVDGVEVHNAKTKPREEQYNSTYRVVSVLTVLHQDWLNGKEYKCKVSNKALPAPIEKTISKAKGQPREPQVCTLPPSREEMTKNQVSLSCAVKGFYPSDIAVEWESNGQPENNYKTTPPVLDSDGSFFLVSKLTVDKSRWQQGNVFSCSVMHEALHNHYTQKSLSLSPGK
As for B1, the “Maximum MFI” value in the experiment with cynomolgus monkey BCMA worked out at 13800; in the experiment with human BCMA [1] it was 17600. For the same molecule, the EC50 (as a rule, the concentration that produces a half-maximal response) stood at 9.02 nM with human BCMA [1] and 50.2 nM in the experiment with human BCMA [2].

B2: PR002935 (bispecific antibody, human IgG1, lambda, L234A L235A)
light: B1 light
heavy: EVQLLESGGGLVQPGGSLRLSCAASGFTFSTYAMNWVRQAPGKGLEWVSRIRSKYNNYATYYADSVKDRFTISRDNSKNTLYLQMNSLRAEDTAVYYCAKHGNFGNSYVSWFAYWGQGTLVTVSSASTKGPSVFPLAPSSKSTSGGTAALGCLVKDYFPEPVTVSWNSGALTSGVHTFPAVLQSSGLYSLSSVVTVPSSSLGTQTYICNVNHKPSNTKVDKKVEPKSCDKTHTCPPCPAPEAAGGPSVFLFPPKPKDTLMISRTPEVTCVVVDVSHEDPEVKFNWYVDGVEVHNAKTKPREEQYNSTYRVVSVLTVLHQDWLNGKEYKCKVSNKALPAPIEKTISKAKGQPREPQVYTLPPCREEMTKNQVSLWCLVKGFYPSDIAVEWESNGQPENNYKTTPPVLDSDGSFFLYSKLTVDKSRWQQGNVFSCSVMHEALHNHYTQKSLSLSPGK
chain: B1 chain
Take B2: the figures for the “Maximum MFI” value with cynomolgus monkey BCMA, in the experiment with human BCMA [1] and with human BCMA [2] were 22000, 23900 and 3840, respectively. In addition, it took 14.8 nM to reach a half-maximal effect with human BCMA [1] (EC50).

B3: PR001990 (bispecific antibody, human IgG1, lambda, L234A L235A)
light: B1 light
heavy: EVQLLESGGGLVQPGGSLRLSCAASGFTFNTYAMNWVRQAPGKGLEWVSRIRSKYNNYATYYADSVKDRFTISRDDSKSTLYLQMNSLRAEDTAVYYCVRHGNFGNSYVSWFAYWGQGTLVTVSSASTKGPSVFPLAPSSKSTSGGTAALGCLVKDYFPEPVTVSWNSGALTSGVHTFPAVLQSSGLYSLSSVVTVPSSSLGTQTYICNVNHKPSNTKVDKKVEPKSCDKTHTCPPCPAPEAAGGPSVFLFPPKPKDTLMISRTPEVTCVVVDVSHEDPEVKFNWYVDGVEVHNAKTKPREEQYNSTYRVVSVLTVLHQDWLNGKEYKCKVSNKALGAPIEKTISKAKGQPREPQVYTLPPCREEMTKNQVSLWCLVKGFYPSDIAVEWESNGQPENNYKTTPPVLDSDGSFFLYSKLTVDKSRWQQGNVFSCSVMHEALHNHYTQKSLSLSPGK
chain: B1 chain with P238G
Regarding B3, the “Maximum MFI” value turned out to be 9170 with cynomolgus monkey BCMA, 13400 in the experiment with human BCMA [1] and 1840 in the experiment with human BCMA [2].

B4: Anti-4-1BB monoclonal antibody urelumab analog, hIgG4 (S228P) (antibody, V domains shown)
VH: QVQLQQWGAGLLKPSETLSLTCAVYGGSFSGYYWSWIRQSPEKGLEWIGEINHGGYVTYNPSLESRVTISVDTSKNQFSLKLSSVTAADTAVYYCARDYGPGNYDWYFDLWGRGTLVTVSS
VL: EIVLTQSPATLSLSPGERATLSCRASQSVSSYLAWYQQKPGQAPRLLIYDASNRATGIPARFSGSGSGTDFTLTISSLEPEDFAVYYCQQRSNWPPALTFGGGTKVEIKR
On to B4, for which, in experiment [3], the “IFN-γ EC50 (nM), T cells with MDA-MB-231 target cells” value stood at 0.536 nM and the “IL-2 EC50 (nM), T cells with MDA-MB-231 target cells” value was determined as 2.94 nM.

B5: HER2xCTLA4 bispecific antibody molecule PR000916 (bispecific antibody, human IgG1, kappa)
light: not shown
heavy: not shown
chain: EVQLVESGGGLIQPGGSLRLSCAVSGFTVSKNYMSWVRQAPGKGLEWVSVVYSGGSKTYADSVKGRFTISRDNSKNTLYLQMNSLRAEDTAVYYCARAVPHSPSSFDIWGQGTMVTVSSEPKSSDKTHTCPPCPAPELLGGPSVFLFPPKPKDTLMISRTPEVTCVVVDVSHEDPEVKFNWYVDGVEVHNAKTKPREEQYNSTYRVVSVLTVLHQDWLNGKEYKCKVSNKALPAPIEKTISKAKGQPREPQVCTLPPSREEMTKNQVSLSCAVKGFYPSDIAVEWESNGQPENNYKTTPPVLDSDGSFFLVSKLTVDKSRWQQGNVFSCSVMHEALHNHYTQKSLSLSPGK
notes: Structure 11 Fab-Fc-VH (bivalent asymmetric); PR000210 Fab (normal), one PR000184 VH
B5: in [4], the EC50 was 4.68 nM and the “Maximum MFI” value is 151 MFI.

B6: HER2xCTLA4 bispecific antibody molecule PR000917 (bispecific antibody, human IgG1, kappa)
light: not shown
heavy: not shown
chain: B5 chain with S143D, I236E
notes: Structure 11 Fab-Fc-VH; PR000210 Fab (normal), one PR000184 VH; DE: S239D, I332E
For B6, in experiment [4], a half-maximal effect (EC50) was put at 9.8 nM and the “Maximum MFI” value turned out to be 142 MFI.

B7: PR007164, PD-L1×4-1BB bispecific antibody molecule of Fab-HCAb symmetric structure (bispecific antibody, human IgG1)
chain 1: EVQLVESGGGLVQPGGSLRLSCAASGFTFSSYWMSWVRQAPGKGLEWVANIKQEGSEKYYVDSVKGRFTISRDNAKNSLYLQMNSLRAEDTAVYYCARDRAVAGAFDIWGQGTMVTVSSASTKGPSVFPLAPSSKSTSGGTAALGCLVKDYFPEPVTVSWNSGALTSGVHTFPAVLQSSGLYSLSSVVTVPSSSLGTQTYICNVNHKPSNTKVDKKVEPKSC
chain 2: not shown
notes: Structure 1 Fab(CL)-VH-Fc; Fab of PR000265, VH of PR001760; no first linker, human IgG1 hinge (C220S); human IgG1 (L234A, L235A)
For B7, in experiment [5], a half-maximal effect (EC50) was put at 1.93 nM and the “Maximum MFI” value was determined as 51400 MFI.

B8: PR003549, PD-L1×4-1BB bispecific antibody molecule of IgG-VH tetravalent symmetric structure (bispecific antibody)
light: DIQMTQSPSTLSASVGDRVTVTCRASQSIYIWLAWYQQKPGKAPNLLIYKASSLETGVPSRFSGSGSGTEFTLTISSLQPDDFATYYCQQYYGSSRTFGQGTKVEIKRTVAAPSVFIFPPSDEQLKSGTASVVCLLNNFYPREAKVQWKVDNALQSGNSQESVTEQDSKDSTYSLSSTLTLSKADYEKHKVYACEVTHQGLSSPVTKSFNRGEC
heavy: EVQLVESGGGLVQPGGSLRLSCAASGFTFSSYWMSWVRQAPGKGLEWVANIKQEGSEKYYVDSVKGRFTISRDNAKNSLYLQMNSLRAEDTAVYYCARDRAVAGAFDIWGQGTMVTVSSASTKGPSVFPLAPSSKSTSGGTAALGCLVKDYFPEPVTVSWNSGALTSGVHTFPAVLQSSGLYSLSSVVTVPSSSLGTQTYICNVNHKPSNTKVDKKVEPKSCDKTHTCPPCPAPEAAGGPSVFLFPPKPKDTLMISRTPEVTCVVVDVSHEDPEVKFNWYVDGVEVHNAKTKPREEQYNSTYRVVSVLTVLHQDWLNGKEYKCKVSNKALGAPIEKTISKAKGQPREPQVYTLPPSREEMTKNQVSLTCLVKGFYPSDIAVEWESNGQPENNYKTTPPVLDSDGSFFLYSKLTVDKSRWQQGNVFSCSVMHEALHNHYTQKSLSLSPGEPKSSDKTHTPPPPPRTEVQLLESGGGLVQLGGSLRLSCAASGFTFSRYAMTWVRQAPEKGLEWVSSISGSGDDTYYGDSVKGRFTISRDNSQNTVYLQMNSLRAEDTAVYFCAKEKAGTTGDYYYNVDVWGQGTTVTVSS
notes: Structure 5; IgG PR000265, VH of PR001758 at C-terminus of heavy chain; linker H1_15-RT; human IgG1 (L234A, L235A, P329G)
Consider B8, for which, in experiment [6], the EC50 was 1.56 nM and the “Maximum MFI” value was 2220 MFI. Moreover, in [7], it took 1.9 nM to reach a half-maximal effect (EC50) and the “Maximum MFI” value stood at 1550 MFI. For the same molecule, in [3], the “IFN-γ EC50 (nM), T cells with MDA-MB-231 target cells” value came out at 0.0695 nM and the “IL-2 EC50 (nM), T cells with MDA-MB-231 target cells” value turned out to be 0.12 nM. For the same molecule, in the experiment with cynomolgus monkey 4-1BB, the EC50 was 1.86 nM and the “Maximum MFI” value was 4980 MFI.

B9: PR003550, PD-L1×4-1BB bispecific antibody molecule of IgG-VH tetravalent symmetric structure (bispecific antibody)
light: B8 light
heavy: EVQLVESGGGLVQPGGSLRLSCAASGFTFSSYWMSWVRQAPGKGLEWVANIKQEGSEKYYVDSVKGRFTISRDNAKNSLYLQMNSLRAEDTAVYYCARDRAVAGAFDIWGQGTMVTVSSASTKGPSVFPLAPSSKSTSGGTAALGCLVKDYFPEPVTVSWNSGALTSGVHTFPAVLQSSGLYSLSSVVTVPSSSLGTQTYICNVNHKPSNTKVDKKVEPKSCDKTHTCPPCPAPEAAGGPSVFLFPPKPKDTLMISRTPEVTCVVVDVSHEDPEVKFNWYVDGVEVHNAKTKPREEQYNSTYRVVSVLTVLHQDWLNGKEYKCKVSNKALGAPIEKTISKAKGQPREPQVYTLPPSREEMTKNQVSLTCLVKGFYPSDIAVEWESNGQPENNYKTTPPVLDSDGSFFLYSKLTVDKSRWQQGNVFSCSVMHEALHNHYTQKSLSLSPGEPKSSDKTHTPPPPPRTEVQLVESGGGVVQPGGSLRLSCAASGFTFSNYAMTWVRQAPEKGLEWVSSISGSGVSTYYADSVKGRFTISRDNSKNTLYLQMTRLTAEDTAVYFCAKEGSSETDDHYYNVDVWGQGTTVTVSS
notes: Structure 5; IgG PR000265, VH of PR001760 at C-terminus of heavy chain; linker H1_15-RT; human IgG1 (L234A, L235A, P329G)
Turning to B9, the EC50 in [6] was determined as 1.11 nM; with cynomolgus monkey 4-1BB, 1.32 nM. Besides, the entries for the “Maximum MFI” value (in [6]; in the experiment with cynomolgus monkey 4-1BB) were 2250 MFI and 5360 MFI, respectively.

B10: PR007163, PD-L1×4-1BB bispecific antibody molecule of Fab-HCAb symmetric structure (bispecific antibody, human IgG1)
light: B8 light
chain: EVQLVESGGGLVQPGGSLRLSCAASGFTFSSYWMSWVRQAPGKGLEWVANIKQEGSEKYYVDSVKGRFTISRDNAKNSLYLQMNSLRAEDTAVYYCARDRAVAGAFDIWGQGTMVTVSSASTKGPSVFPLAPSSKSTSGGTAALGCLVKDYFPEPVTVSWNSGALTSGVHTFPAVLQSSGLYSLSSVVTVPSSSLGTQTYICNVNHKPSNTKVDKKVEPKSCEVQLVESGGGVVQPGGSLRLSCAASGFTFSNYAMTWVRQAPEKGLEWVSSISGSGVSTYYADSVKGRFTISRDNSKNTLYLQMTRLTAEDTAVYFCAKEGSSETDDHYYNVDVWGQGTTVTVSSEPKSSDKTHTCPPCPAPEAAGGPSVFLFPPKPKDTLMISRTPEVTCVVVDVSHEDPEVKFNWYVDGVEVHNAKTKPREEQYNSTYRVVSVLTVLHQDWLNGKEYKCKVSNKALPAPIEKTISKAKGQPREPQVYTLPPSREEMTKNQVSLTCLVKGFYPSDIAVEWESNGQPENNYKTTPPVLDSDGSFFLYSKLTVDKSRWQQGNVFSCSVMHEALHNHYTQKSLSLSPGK
notes: Structure 2 Fab(CH1)-VH-Fc; Fab of PR000265, VH of PR001760; no first linker, human IgG1 hinge (C220S); human IgG1 (L234A, L235A)
As for B10, in experiment [5], the EC50 stood at 2.26 nM and the “Maximum MFI” value was determined as 51300 MFI.
